Here are results for two molecules from article doi:10.1101/2021.02.18.431627 (bioRxiv, 2021).

Data set [1] has as its target GlyR-α3L-eGFP (glycine receptor α3, long splice variant L, N-terminally tagged with eGFP) (mouse) (UniProt Q91XP5). Put plainly: subunit counting by stepwise photobleaching.
Data set [2] has the same target. Put plainly: molecular brightness by raster image correlation spectroscopy.
Data set [3] concerns the molecule itself. Put plainly: subunit counting by stepwise photobleaching.
Data set [4] concerns the molecule itself. Put plainly: molecular brightness by raster image correlation spectroscopy.

“GlyR-α3K-mCherry (glycine receptor α3, short splice variant K, N-terminally tagged with mCherry)”: in data set [1], the N (α3L-eGFP subunits per heteropentamer) was in the range of 2 to 4, the heteropentameric fraction (fit with a 2nd order binomial) is 23%, the heteropentameric fraction (fit with a 3rd order binomial) turned out to be 36% and the heteropentameric fraction (fit with a 4th order binomial) stood at 67%. Moreover, the N (α3L-eGFP subunits per heteropentamer, in a few cells) in data set [2] amounted to 1.

B1: GlyR-α3L-eGFP (glycine receptor α3, long splice variant L, N-terminally tagged with eGFP) (receptor, mouse, UniProt Q91XP5 34-464, looked up)
chain: ARSRSAPMSPSDFLDKLMGRTSGYDARIRPNFKGPPVNVTCNIFINSFGSIAETTMDYRVNIFLRQKWNDPRLAYSEYPDDSLDLDPSMLDSIWKPDLFFANEKGANFHEVTTDNKLLRIFKNGNVLYSIRLTLTLSCPMDLKNFPMDVQTCIMQLESFGYTMNDLIFEWQDEAPVQVAEGLTLPQFLLKEEKDLRYCTKHYNTGKFTCIEVRFHLERQMGYYLIQMYIPSLLIVILSWVSFWINMDAAPARVALGITTVLTMTTQSSGSRASLPKVSYVKAIDIWMAVCLLFVFSALLEYAAVNFVSRQHKELLRFRRKRKNKTEAFALEKFYRFSDTDDEVRESRFSFTAYGMGPCLQAKDGVVPKGPNHAVQVMPKSPDEMRKVFIDRAKKIDTISRACFPLAFLIFNIFYWVIYKILRHEDIHQQQD
As usually defined, the stoichiometry N is the number of molecules, sites or subunits per partner or assembly. As for B1, the entries for the “stoichiometry N” value in data set [3] and in data set [4] were 5 and approximately 5, respectively.
